Patent US20220332804A1 (CSL INNOVATION, published 2022)

Columns and labels:
Experiment in all cases: SPR, antibody captured, C2 as analyte;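 further: biacore SPR at 37 °C, anti-C2 mAbs captured via goat anti-human IgG on CM5 chips, double-referenced sensorgrams fit to a 1:1 kinetic or steady-state model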
[1] = target: T1, human C2 L271A (human, UniProt P06681 21-752)
T1 sequence: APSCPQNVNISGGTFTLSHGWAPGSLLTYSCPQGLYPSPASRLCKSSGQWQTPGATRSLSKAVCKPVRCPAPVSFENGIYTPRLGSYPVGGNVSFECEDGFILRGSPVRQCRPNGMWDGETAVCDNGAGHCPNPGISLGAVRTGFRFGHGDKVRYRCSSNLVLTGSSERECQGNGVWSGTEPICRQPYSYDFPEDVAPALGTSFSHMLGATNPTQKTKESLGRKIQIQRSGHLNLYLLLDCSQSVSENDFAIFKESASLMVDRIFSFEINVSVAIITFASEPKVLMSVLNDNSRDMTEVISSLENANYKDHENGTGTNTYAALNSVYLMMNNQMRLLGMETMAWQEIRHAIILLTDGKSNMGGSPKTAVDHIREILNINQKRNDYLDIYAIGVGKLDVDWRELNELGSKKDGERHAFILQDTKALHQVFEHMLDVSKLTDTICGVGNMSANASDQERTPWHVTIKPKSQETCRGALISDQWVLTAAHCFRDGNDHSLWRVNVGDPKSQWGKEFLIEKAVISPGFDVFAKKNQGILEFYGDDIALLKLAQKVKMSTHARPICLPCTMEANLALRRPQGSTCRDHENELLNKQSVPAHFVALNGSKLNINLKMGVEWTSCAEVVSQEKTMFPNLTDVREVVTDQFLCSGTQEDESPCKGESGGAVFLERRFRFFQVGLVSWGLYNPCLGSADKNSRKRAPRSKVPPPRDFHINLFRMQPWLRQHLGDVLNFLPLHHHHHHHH

[2] = target: T2, human C2 I320A (human, UniProt P06681 21-752)
T2 sequence: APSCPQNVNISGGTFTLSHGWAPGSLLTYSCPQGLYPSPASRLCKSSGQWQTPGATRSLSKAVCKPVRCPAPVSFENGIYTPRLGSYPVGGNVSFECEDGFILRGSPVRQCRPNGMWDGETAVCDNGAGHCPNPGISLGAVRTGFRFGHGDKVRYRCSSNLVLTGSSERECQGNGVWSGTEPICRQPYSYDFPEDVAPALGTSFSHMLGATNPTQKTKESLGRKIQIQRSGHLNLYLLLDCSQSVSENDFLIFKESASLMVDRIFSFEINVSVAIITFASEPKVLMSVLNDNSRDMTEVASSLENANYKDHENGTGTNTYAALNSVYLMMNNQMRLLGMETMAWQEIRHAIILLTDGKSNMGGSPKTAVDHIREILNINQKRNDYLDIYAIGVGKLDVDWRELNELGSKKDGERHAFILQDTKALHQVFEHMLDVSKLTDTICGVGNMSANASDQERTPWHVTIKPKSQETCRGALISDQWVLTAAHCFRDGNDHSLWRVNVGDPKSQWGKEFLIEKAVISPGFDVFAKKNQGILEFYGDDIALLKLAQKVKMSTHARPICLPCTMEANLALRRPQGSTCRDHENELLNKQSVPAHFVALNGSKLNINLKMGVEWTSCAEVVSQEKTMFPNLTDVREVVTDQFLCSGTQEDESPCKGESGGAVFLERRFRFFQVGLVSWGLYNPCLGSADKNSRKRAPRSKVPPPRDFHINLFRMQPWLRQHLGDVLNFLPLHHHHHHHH

[3] = target: T3, human C2 N268A (human, UniProt P06681 21-752)
T3 sequence: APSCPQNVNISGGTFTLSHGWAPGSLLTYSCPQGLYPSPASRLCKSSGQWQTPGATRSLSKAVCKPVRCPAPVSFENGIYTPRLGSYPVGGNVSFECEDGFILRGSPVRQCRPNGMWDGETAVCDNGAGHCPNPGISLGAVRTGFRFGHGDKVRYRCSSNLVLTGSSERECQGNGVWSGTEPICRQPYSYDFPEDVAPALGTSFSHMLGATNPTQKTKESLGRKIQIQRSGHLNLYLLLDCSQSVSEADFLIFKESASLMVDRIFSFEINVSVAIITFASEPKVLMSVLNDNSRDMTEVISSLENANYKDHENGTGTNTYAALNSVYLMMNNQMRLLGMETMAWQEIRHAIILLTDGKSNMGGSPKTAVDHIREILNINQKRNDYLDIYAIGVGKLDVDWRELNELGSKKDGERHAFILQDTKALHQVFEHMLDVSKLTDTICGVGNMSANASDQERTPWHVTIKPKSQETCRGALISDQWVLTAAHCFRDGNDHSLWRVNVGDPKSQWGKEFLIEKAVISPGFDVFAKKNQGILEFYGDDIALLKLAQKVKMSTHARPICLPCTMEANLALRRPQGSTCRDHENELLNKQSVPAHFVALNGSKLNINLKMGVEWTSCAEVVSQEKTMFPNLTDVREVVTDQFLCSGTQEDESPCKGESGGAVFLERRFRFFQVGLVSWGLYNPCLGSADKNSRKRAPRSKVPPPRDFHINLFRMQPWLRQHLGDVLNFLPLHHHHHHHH

[4] = target: T4, human C2 N703A (human, UniProt P06681 21-752)
T4 sequence: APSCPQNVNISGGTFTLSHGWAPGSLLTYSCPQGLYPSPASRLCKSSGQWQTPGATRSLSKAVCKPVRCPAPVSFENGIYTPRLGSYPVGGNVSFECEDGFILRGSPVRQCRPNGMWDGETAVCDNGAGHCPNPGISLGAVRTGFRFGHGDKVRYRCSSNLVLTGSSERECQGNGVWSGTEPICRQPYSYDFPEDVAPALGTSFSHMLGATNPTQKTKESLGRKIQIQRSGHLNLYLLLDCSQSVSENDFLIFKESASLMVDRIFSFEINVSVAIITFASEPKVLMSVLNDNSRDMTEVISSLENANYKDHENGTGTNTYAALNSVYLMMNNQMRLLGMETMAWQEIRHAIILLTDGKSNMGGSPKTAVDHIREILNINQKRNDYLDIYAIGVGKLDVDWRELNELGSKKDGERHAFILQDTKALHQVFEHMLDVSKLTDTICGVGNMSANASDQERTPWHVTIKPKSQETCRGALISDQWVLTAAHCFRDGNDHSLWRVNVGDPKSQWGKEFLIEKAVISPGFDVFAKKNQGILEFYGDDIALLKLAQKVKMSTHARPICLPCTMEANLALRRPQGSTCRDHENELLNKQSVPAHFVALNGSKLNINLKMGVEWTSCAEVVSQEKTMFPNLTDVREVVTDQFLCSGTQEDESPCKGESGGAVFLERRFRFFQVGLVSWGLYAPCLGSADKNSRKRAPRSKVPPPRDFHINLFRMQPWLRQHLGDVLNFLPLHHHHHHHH

B1: RF16-226 (antibody, human IgG4 S228P, lambda)
heavy: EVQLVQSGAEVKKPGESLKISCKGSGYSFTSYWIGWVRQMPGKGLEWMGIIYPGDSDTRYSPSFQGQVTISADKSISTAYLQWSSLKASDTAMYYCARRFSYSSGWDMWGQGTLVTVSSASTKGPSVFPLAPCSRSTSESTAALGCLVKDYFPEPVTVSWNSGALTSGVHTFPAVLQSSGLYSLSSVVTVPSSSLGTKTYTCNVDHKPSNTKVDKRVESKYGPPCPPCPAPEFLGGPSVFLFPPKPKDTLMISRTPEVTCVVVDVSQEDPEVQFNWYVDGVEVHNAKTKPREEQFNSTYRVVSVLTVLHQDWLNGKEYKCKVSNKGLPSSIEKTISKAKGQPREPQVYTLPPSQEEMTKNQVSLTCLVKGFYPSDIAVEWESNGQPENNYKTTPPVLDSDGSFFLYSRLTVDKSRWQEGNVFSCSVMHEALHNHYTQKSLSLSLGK
light: SYELTQPPSVSVSPGQTARITCSGDALTSKYVAWYQQKSGLAPLLVIYEDTRRPSGIPAKFSGSSSGSVATLTISGAHGDDEADYYCYSTDASGHQRVFGGGTKLTVLSQPKAAPSVTLFPPSSEELQANKATLVCLISDFYPGAVTVAWKADGSPVKAGVETTKPSKQSNNKYAASSYLSLTPEQWKSHRSYSCQVTHEGSTVEKTVAPTECS
notes: pH-dependent anti-C2 antibody from a phage display library; also called WT
[1]
  Kd: 10.8 nM
[2]
  Kd: 116 nM
[3]
  Kd: 11.8 nM
[4]
  Kd: 292 nM
